From patent US20120316071A1 (published 2012)
Substitutions are numbered along the chain they refer to. Names may count otherwise.

Legend:
[1] = molecular target: T1, rHuman EGF R/Fc Chimera, CF (R&D Systems Cat#344-ER) (human, UniProt P00533 25-645); assay: ECL multispot (MSD) assay, antigen spotted on plate, Fab at 0.01 µM
T1 construct: Bought recombinant protein; also called epidermal growth factor receptor; Fc part of the bought chimera not given

[2] = molecular target: T2, rHuman ErbB2/Fc Chimera, CF (R&D Systems Cat#1129-ER) (human, UniProt P04626 23-652); assay: as above
T2 construct: Bought recombinant protein; also called human epidermal growth factor 2 receptor; Fc part of the bought chimera not given

[3] = molecular target: T3, rHuman IGF-1 sR, CF (R&D Systems Cat#391-GR) (human, UniProt P08069 31-932); assay: as above
T3 construct: Bought recombinant soluble receptor; also called insulin-like growth factor-1 soluble receptor

[4] = molecular target: T4, Recombinant Human DLL4 (R&D Systems Cat#1506-D4/CF) (human, UniProt Q9NR61 27-524); assay: as above
T4 construct: Bought recombinant protein; also called delta-like protein 4; rHuman DLL4

[5] = molecular target: T5, rHuman Notch-1/Fc Chimera, CF (R&D Systems Cat#3647-TK) (human, UniProt P46531 19-526); assay: as above
T5 construct: Bought recombinant protein; Fc part of the bought chimera not given

[6] = molecular target: T6, rHuman Erythropoietin R/Fc Chimera, CF (R&D Systems Cat#963-ER) (human, UniProt P19235 25-250); assay: as above
T6 construct: Bought recombinant protein; also called EPO R; EPO R/Fc; Fc part of the bought chimera not given
T6 sequence (looked up): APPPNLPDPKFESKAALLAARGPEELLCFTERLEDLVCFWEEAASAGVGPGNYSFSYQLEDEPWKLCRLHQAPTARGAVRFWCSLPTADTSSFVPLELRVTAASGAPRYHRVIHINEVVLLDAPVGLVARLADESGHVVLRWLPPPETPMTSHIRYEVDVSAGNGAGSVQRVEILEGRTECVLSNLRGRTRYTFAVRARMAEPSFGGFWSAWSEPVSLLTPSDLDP

[7] = molecular target: T7, rHuman CD44/Fc Chimera, CF (R&D Systems Cat#3660-CD) (human, UniProt P16070 21-220); assay: as above
T7 construct: Bought recombinant protein; Fc part of the bought chimera not given

[8] = molecular target: T8, rHuman HGF R/c-MET/Fc Chimera, CF (R&D Systems Cat#358-MT/CF) (human, UniProt P08581 25-932); assay: as above
T8 construct: Bought recombinant protein; also called HGF R/Fc; hepatocyte growth factor receptor; Fc part of the bought chimera not given
T8 sequence (P08581 25-932, change not shown): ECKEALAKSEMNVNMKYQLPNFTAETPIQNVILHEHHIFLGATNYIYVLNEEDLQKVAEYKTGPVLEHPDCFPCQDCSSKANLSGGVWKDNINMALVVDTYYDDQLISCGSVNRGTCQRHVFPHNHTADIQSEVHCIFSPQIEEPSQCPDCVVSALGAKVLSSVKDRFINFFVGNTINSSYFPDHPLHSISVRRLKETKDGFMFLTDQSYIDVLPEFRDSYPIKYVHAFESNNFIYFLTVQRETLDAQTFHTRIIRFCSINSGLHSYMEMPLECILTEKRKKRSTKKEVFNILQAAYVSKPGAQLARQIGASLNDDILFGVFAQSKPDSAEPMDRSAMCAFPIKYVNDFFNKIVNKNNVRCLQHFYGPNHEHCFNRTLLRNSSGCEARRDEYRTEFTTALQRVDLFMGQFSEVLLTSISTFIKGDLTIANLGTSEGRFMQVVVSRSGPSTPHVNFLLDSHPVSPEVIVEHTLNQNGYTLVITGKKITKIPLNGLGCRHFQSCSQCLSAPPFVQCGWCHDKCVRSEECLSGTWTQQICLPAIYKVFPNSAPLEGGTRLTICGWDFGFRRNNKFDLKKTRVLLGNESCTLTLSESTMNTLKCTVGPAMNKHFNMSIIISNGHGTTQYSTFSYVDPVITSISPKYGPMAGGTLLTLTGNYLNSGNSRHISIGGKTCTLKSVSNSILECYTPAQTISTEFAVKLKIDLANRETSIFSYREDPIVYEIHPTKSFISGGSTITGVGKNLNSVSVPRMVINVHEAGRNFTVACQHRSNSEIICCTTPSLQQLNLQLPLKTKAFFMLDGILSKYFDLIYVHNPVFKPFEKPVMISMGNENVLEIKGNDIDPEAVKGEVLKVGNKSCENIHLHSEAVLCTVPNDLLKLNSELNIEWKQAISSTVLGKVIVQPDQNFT

[9] = molecular target: T9, rHuman P-Cadherin/Fc Chimera, CF (R&D Systems Cat#861-PC) (human, UniProt P22223 108-654); assay: as above
T9 construct: Bought recombinant protein; Fc part of the bought chimera not given

[10] = molecular target: T10, Recombinant Human DLL4 (delta-like protein 4) (human, UniProt Q9NR61 27-524); assay: ECL Multispot (MSD) binding assay, DLL4 spotted on plate, 10 nM Fab
T10 construct: Bought recombinant protein (R&D Systems Cat#1506-D4/CF); also called rHuman DLL4; Delta-like 4

[11] = molecular target: T11, Recombinant Human DLL4 (delta-like protein 4) (human, UniProt Q9NR61 27-524); assay: ECL Multispot (MSD) binding assay, DLL4 spotted on plate, 10 nM Fab; ECL signal over blank spot
T11 construct: Bought recombinant protein (R&D Systems Cat#1506-D4/CF), spotted on the MSD plate; also called rHuman DLL4; Delta-like 4

[12] = molecular target: T12, rHuman EGF R/Fc Chimera, CF (R&D Systems Cat#344-ER) (human, UniProt P00533 25-645); assay: ECL multispot (MSD), antigen spotted, 10 nM Fab; blank spot of this row 271
T12 construct: Bought recombinant protein; also called epidermal growth factor receptor; Fc part of the bought chimera not given

[13] = molecular target: T13, rHuman ErbB2/Fc Chimera, CF (R&D Systems Cat#1129-ER) (human, UniProt P04626 23-652); assay: as above
T13 construct: Bought recombinant protein; also called human epidermal growth factor 2 receptor; Fc part of the bought chimera not given

[14] = molecular target: T14, rHuman Notch-1/Fc Chimera, CF (R&D Systems Cat#3647-TK) (human, UniProt P46531 19-526); assay: as above
T14 construct: Bought recombinant protein; Fc part of the bought chimera not given

[15] = molecular target: T15, rHuman IGF-1 sR, (IGF-1 sR), CF (R&D Systems Cat#391-GR) (human, UniProt P08069 31-932); assay: as above
T15 construct: Bought recombinant soluble receptor; also called insulin-like growth factor-1 soluble receptor

[16] = molecular target: T16, rHuman P-Cadherin/Fc Chimera, CF (R&D Systems Cat#861-PC) (human, UniProt P22223 108-654); assay: as above
T16 construct: Bought recombinant protein; Fc part of the bought chimera not given

[17] = molecular target: T17, rHuman Erythropoietin R/Fc Chimera, CF (R&D Systems Cat#963-ER) (human, UniProt P19235 25-250); assay: as above
T17 construct: Bought recombinant protein; also called EPO R; EPO R/Fc; Fc part of the bought chimera not given
T17 sequence (looked up): T6 sequence (looked up)

[18] = molecular target: T18, rHuman CD44/Fc Chimera, CF (R&D Systems Cat#3660-CD) (human, UniProt P16070 21-220); assay: as above
T18 construct: Bought recombinant protein; Fc part of the bought chimera not given

[19] = molecular target: T19, rHuman ErbB2/Fc Chimera, CF (R&D Systems Cat#1129-ER) (human, UniProt P04626 23-652); assay: Multispot ECL (MSD) binding screen, antigen spotted on plate; hit = signal/blank >= 4
T19 construct: Bought Fc chimera; also called human epidermal growth factor 2 receptor; Fc part of the bought chimera not given

[20] = molecular target: T20, Recombinant Human DLL4 (R&D Systems Cat#1506-D4/CF) (human, UniProt Q9NR61 27-524); assay: ECL multispot (MSD) binding assay; DLL4 spotted on the plate, purified Fab added
T20 construct: Bought recombinant protein; also called delta-like protein 4; rHuman DLL4

[21] = molecular target: T20, Recombinant Human DLL4 (R&D Systems …); assay: ECL multispot (MSD) binding assay; DLL4 signal over blank spot
rHuman CD44/Fc Chimera = rHuman CD44/Fc Chimera (human, UniProt P16070 21-220); assay: ECL multispot (MSD) binding assay; antigen spotted on plate, Fab in solution;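 also: purified Fab bound for 1 h at 20 °C, detected with a TAG-labelled antibody, electrochemiluminescence compared with each well's blank, signal-to-blank ratio of at least 4 scored as hit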
[22] = molecular target: T21, rHuman Notch-1/Fc Chimera (human, UniProt P46531 19-526); assay: as above
T21 construct: Bought from R&D Systems (Cat#3647-TK)

[23] = molecular target: rHuman IGF-1 sR (insulin-like growth factor-1 soluble receptor) (human, UniProt P08069 31-932); assay: as above
[24] = molecular target: T22, rHuman Erythropoietin R/Fc Chimera (human, UniProt P19235 25-250); assay: as above
T22 construct: also called EPO R; EPO R/Fc
T22 sequence (looked up): T6 sequence (looked up)

rHuman EGF R/Fc Chimera = rHuman EGF R/Fc Chimera (human, UniProt P00533 25-645); assay: as above
[25] = molecular target: T23, rHuman P-Cadherin/Fc Chimera (human, UniProt P22223 108-654); assay: as above
T23 construct: Bought from R&D Systems (Cat#861-PC)

[26] = molecular target: T24, Recombinant Human DLL4 (delta-like protein 4) (human, UniProt Q9NR61 27-529); assay: as above
T24 construct: Bought from R&D Systems (Cat#1506-D4/CF); also called rHuman DLL4

[27] = molecular target: T25, rHuman HGF R/c-MET/Fc Chimera (human, UniProt P08581 25-932); assay: as above
T25 construct: also called HGF R/Fc
T25 sequence (P08581 25-932, change not shown): as above

rHuman ErbB2/Fc Chimera = rHuman ErbB2/Fc Chimera (human, UniProt P04626 23-652); assay: as above

B1: Fab VH1-46_IGHD6-6*01_IGHJ1*01 & L6_IGKJ1*01 (Fab, V domains shown)
VH: QVQLVQSGAEVKKPGASVKVSCKASGYTFTSYYMHWVRQAPGQGLEWMGIINPSGGSTSYAQKFQGRVTMTRDTSTSTVYMELSSLRSEDTAVYYCAREEYSSSSAEYFQHWGQGTLVTVSS
VL: not shown
notes: Tested as a Fab expressed in E. coli; The heavy chain variable region was cloned into Plasmid A (CH1, His6 and Flag tags) and the kappa light chain variable region into Plasmid C (kappa CL); also called Parent; parental
[1]
  ECL signal/noise ratio: 0.9
[2]
  ECL signal/noise ratio: 1
[3]
  ECL signal/noise ratio: 0.8
[4]
  ECL signal/noise ratio: 4.9
[5]
  ECL signal/noise ratio: 0.5
[6]
  ECL signal/noise ratio: 1
[7]
  ECL signal/noise ratio: 1.1
[8]
  ECL signal/noise ratio: 0.9
[9]
  ECL signal/noise ratio: 1

B2: Fab VH1-46_IGHD6-6*01_IGHJ1*01 S102A/S103P/S104F A106E & L6_IGKJ1*01 (Fab, V domains shown)
VH: B1 VH with S102A, S103P, S104F, A106E
VL: not shown
notes: Tested as Fab; also called APF A106E
[10]
  Signal/Noise: 4.3

B3: Fab VH1-46_IGHD6-6*01_IGHJ1*01 S102A/S103P/S104F G55W & L6_IGKJ1*01 (Fab, V domains shown)
VH: B1 VH with G55W, S102A, S103P, S104F
VL: not shown
notes: Tested as Fab; also called APF G55W
[10]
  Signal/Noise: 8

B4: Fab VH1-46_IGHD6-6*01_IGHJ1*01 S102A/S103P/S104F H111S & L6_IGKJ1*01 (Fab, V domains shown)
VH: B1 VH with S102A, S103P, S104F, H111S
VL: not shown
notes: Fab format is as for m1 (CH1 with His6/Flag from Plasmid A, kappa CL from Plasmid C); also called APF H111S
[11]
  Signal/Noise: 24

B5: Fab VH1-46_IGHD6-6*01_IGHJ1*01 S102A/S103P/S104F/H111F & L6_IGKJ1*01 (Fab, V domains shown)
VH: B1 VH with S102A, S103P, S104F, H111F
VL: not shown
notes: Fab format is as for m1 (CH1 with His6/Flag from Plasmid A, kappa CL from Plasmid C); also called APFF; H:APFF & L:wt
[11]
  Signal/Noise: 42.5

B6: Fab VH1-46_IGHD6-6*01_IGHJ1*01 S102A/S103P/S104F G55W & L6_IGKJ1*01 (Fab, V domains shown)
VH: B1 VH with G55W, S102A, S103P, S104F
VL: not shown
notes: Tested as Fab (CH1 with His6 and Flag tags, kappa CL); also called APF G55W
[12]
  ECL signal: 312
[13]
  ECL signal: 334
[14]
  ECL signal: 327
[15]
  ECL signal: 250
[16]
  ECL signal: 391
[17]
  ECL signal: 296
[18]
  ECL signal: 159

B7: Fab VH2-5_IGHD7-27*01_IGHJ2*01 & L2_IGKJ1*01 (Fab, V domains shown)
VH: QITLKESGPTLVKPTQTLTLTCTFSGFSLSTSGVGVGWIRQPPGKALEWLALIYWNDDKRYSPSLKSRLTITKDTSKNQVVLTMTNMDPVDTATYYCAHRPNWGYWYFDLWGRGTLVTVSS
VL: not shown
[19]
  binding result: binds

B8: Fab VH1-69_IGHD1-1*01_IGHJ6*01 & A17_IGKJ1*01 (Fab, V domains shown)
VH: QVQLVQSGAEVKKPGSSVKVSCKASGGTFSSYAISWVRQAPGQGLEWMGGIIPIFGTANYAQKFQGRVTITADKSTSTAYMELSSLRSEDTAVYYCARGYNWNDDYYYYYGMDVWGQGTTVTVSS
VL: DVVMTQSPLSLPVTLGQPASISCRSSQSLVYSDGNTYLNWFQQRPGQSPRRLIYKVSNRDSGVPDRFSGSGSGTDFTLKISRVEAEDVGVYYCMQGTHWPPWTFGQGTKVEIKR
notes: Fab; expressed in E. coli from Plasmid A (CH1, His6 and Flag tags) and Plasmid C (kappa CL)
[19]
  binding result: binds

B9: Fab VH1-46_IGHD6-6*01_IGHJ1*01 S102A/S103P/S104F/H111F (APFF) & L6_IGKJ1*01 (Fab, V domains shown)
VH: B1 VH with S102A, S103P, S104F, H111F
VL: not shown
notes: Tested as an E. coli-expressed Fab; also called H:APFF & L:wt; APFF parent
[20]
  ECL signal: 189000 ECL counts
[21]
  Signal/Blank: 611 ratio

B10: Fab VH1-46_IGHD6-6*01_IGHJ1*01 S102A/S103P/S104F/H111F (APFF) & L6_IGKJ1*01 S92G (Fab, V domains shown)
VH: B1 VH with S102A, S103P, S104F, H111F
VL: EIVLTQSPATLSLSPGERATLSCRASQSVSSYLAWYQQKPGQAPRLLIYDASNRATGIPARFSGSGSGTDFTLTISSLEPEDFAVYYCQQRGNWPPWTFGQGTKVEIKR
notes: Fab with CH1 (His6 and Flag tags) and kappa CL from the expression vectors; also called APFF & S92G
[20]
  ECL signal: 91400 ECL counts
[21]
  Signal/Blank: 281 ratio

B11: Fab VH1-46_IGHD6-6*01_IGHJ1*01 S102A/S103P/S104F/H111F (APFF) & L6_IGKJ1*01 S92C (Fab, V domains shown)
VH: B1 VH with S102A, S103P, S104F, H111F
VL: B10 VL with G92C
notes: Tested as Fab made in E. coli: VH cloned into Plasmid A (CH1, His6 and Flag tags), kappa VL into Plasmid C (kappa CL); also called APFF / S92C
rHuman CD44/Fc Chimera
  ECL signal: 554
[22]
  ECL signal: 642
[23]
  ECL signal: 642
[24]
  ECL signal: 742
rHuman EGF R/Fc Chimera
  ECL signal: 588
[25]
  ECL signal: 805
[26]
  ECL signal: 1230
[27]
  ECL signal: 589
rHuman ErbB2/Fc Chimera
  ECL signal: 526

B12: Fab VH1-46_IGHD6-6*01_IGHJ1*01 S102A/S103P/S104F/H111F (APFF) & L6_IGKJ1*01 (Fab, V domains shown)
VH: B1 VH with S102A, S103P, S104F, H111F
VL: not shown
notes: Tested as Fab (CH1 with His6/Flag tags from Plasmid A; kappa CL from Plasmid C); also called APFF / parent; H:APFF & L:wt
[23]
  ECL signal: 336
rHuman EGF R/Fc Chimera
  ECL signal: 326
[25]
  ECL signal: 295
[26]
  ECL signal: 189000
[27]
  ECL signal: 185
rHuman ErbB2/Fc Chimera
  ECL signal: 289
